# Source: patent publication US5840283A, “Composition and method for treating diseased nails” (Sorenson Pharmaceutical, Inc., priority 1997, dated 1998)
# Counter-ions that a name gives are not always drawn. Like-named read-outs stand apart in the source and are kept apart here.
# Experiments:
# [1] = type: in vitro ADME, human
# Method: The efficacy of the nail-permeable medication means of the present invention was first evaluated by conducting comparative studies comprising application of a selected drug applied to a human nail in vitro as compared to the application of the nail-permeable medication means containing the same drug applied to a human nail in vitro. Specifically, these tests were conducted using diseased human toenails which were surgically removed from patients as a means of curing the disease condition of the nail.
# Each nail was maintained in an environment simulating an in vivo condition. Each nail was maintained suspended on a plastic holder which allowed air to circulate about the nail. Each nail holder was retained in a separate enclosed system the temperature and humidity within which could be carefully regulated to simulate the human body. These artificial in vivo environments provided the diffusion cells in which the studies were conducted.
# Human nails were prepared by cleaning and, in some instances, grinding the nail down to establish a more even thickness across the nail. The nails were then hydrated using distilled water to render the nails pliable for placement in the diffusion cell. […] A Teflon® donor compartment 16 was positioned over the nail 12 and the nail saddle 14 was joined to the donor compartment 16 by placement of a silicone sealant about the edges of the nail 12 and donor compartment 16. After the silicone cured, water leakage was tested and the nails were resealed if necessary. […] Attempts were made to use an appropriate size "O" ring 18 to form the seal between the nail saddle 14 and the donor compartment 16.
# The cell 10 was used by adding solvent, usually de-ionized water, until the solvent came into contact with the nail. […] When semi-solid treatment formulations were used, excess product was removed from the nail by cleansing with cotton swabs after twenty-four hours and prior to application of another nail treatment or pre-treatment product. Pretreatment products (e.g., hydrating fluid, etc.) and treatment products (i.e., nail-permeable medication means) were changed or supplemented daily throughout the experimental period.
# After addition of the pretreatment or treatment product, the opening of the donor cell 10 was occluded with silicone cement/sealant. The possibility of entrapped air at the interface of the receiver solvent and nail was checked daily, as well as at the beginning of the experiment. To control this problem, care was taken to be certain that no bubbles were present at the time solvents were added and the nail placed in the saddle. Bubbles may not be visible after the apparatus is fully assembled. Also, dissolved gases tend to separate into bubbles and rise to the nail/receiver interface during the process.
# Ciclopirox olamine (6-Cyclohexyl 1-hydroxy 4-methyl 2(1H)-pyridone, 2-aminoethanol salt [Bertrafen]), an antimycotic drug, was used in the nail-permeable medication means of the invention for the purposes of testing and analysis. Three analytical methods are identified in the literature which appear to be acceptable means of determining drug diffusion rates. One method requires the use of radio-labeled drug, and another method utilizes LC (liquid chromatography) equipment. The third method, described by Belliardo, et al., in "Micro-liquid chromatography method for the determination of ciclopirox olamine after pre-column derivatization in topical formulations" Jr. Chromatography, Vol. 553 (1991), p. 41-5, was the method used here. However, because of lack of access to a micro-LC system, lesser concentrations of ciclopirox olamine (<1-2 μg/ml of diffusion fluid) were unquantifiable. Lesser concentrations were sometimes seen as small irregularities on the HPLC (high-pressure liquid chromatography) tracing, but the identity was not confirmed by computer. […]
# [2] = pilot clinical study in patients with subungual onychomycosis; type: in vivo, human; details: arm 3; patient's assessment of clinical results 1-5, 5 positive
# Description: Patients enrolled in the study were diagnosed with subungual onychomycosis from a positive culture of a target nail. The target nail was that nail most severely involved with symptoms of onychomycosis. […] Patients with a history of non-response to standard antimycotic treatments, or severe abnormalities or deformities of the assessed fingers or toes, were excluded.
# The protocol called for an eleven month treatment period.
# Patients visited their physicians on a monthly basis for evaluation. Clinical measurements and mycological cultures were taken on alternating visits. Adverse events were defined as any abnormal inflammation of the tissues surrounding the nail from the patient's pretreatment condition and were checked by their physician or reported as they occurred. Patient evaluations of clinical treatment were obtained by a survey of patients. Ease of application, convenience of application, and patient's assessments of the clinical results were rated by patients on a scale of 1 to 5 with 1 indicating visible effect and 5 being positive. In addition, patients were also asked to respond to treatment compliance by reporting the number of days per week which they applied their medication as prescribed.
# Therefore, patients treated in arm 3 (antifungal only) of the study were used as the baseline upon which clinical and mycologic results were measured.
# [3] = system: T. rubrum; details: cited from earlier work
# [4] = duration of papain activity after mixture with water; type: physicochemical; details: certain activators present
# Description: The nail-permeable medication means also includes a medicament which is especially selected for treatment of a particular disease condition. The concentration of medicament in the nail-permeable means is sufficient to effectively control or eliminate the disease condition. […] It is notable in that respect that many medications have a water base, or have a water component in addition to certain activators (e.g. thiols and mercaptans which include cysteine and a chelating agent, such as EDTA [ethylenediaminetetraacetic acid]) which, when admixed with the enzymatic composition, may begin to degrade the enzyme and/or reduce its effectiveness. However, admixture of a water-based or water-containing medicament with a proteolytic enzyme will typically degrade the enzymatic component slowly enough that significant penetration of the nail still takes place and the medicament is successfully delivered to the disease site. Generally, papain and other proteolytic enzymes are effective for approximately twenty-four hours after mixture with water where certain activators are present. In the absence of such activators, papain may remain active for up to two years.
# [5] = system: casein substrate; details: cited from earlier work
# [6] = cited from earlier work
molecule,measurement,setting,value
"Cc1cc(C2CCCCC2)n(O)c(=O)c1 [ciclopirox olamine, 6-Cyclohexyl 1-hydroxy 4-methyl 2(1H)-pyridone, 2-aminoethanol salt]",amount of drug diffused compared with soaked nails,[1],less than when the nails were soaked with the papain-plus-activators
same,"diffusion of drug through the nail, control without proteolytic enzyme component",[1],no diffusion of drug through the nail
same,drug diffusion for the seven-day period,[1],2 to 6 µg/mL
same,effect of increasing papain concentration on amount of drug diffused,[1],did not increase the amount of drug diffused
same,effect of soaking time on amount of drug diffused,[1],the amount of drug that diffused through the treated nails also increased
same,ANALYSES (ciclopirox diffused through nail),[1]; pH 10,0 µg/mL
same,Results (1-5),[2],1
same,minimum inhibitory concentration (MIC),[3],10 mg/L
"papain: proteolytic enzyme (protein, UniProt P00784 134-345, looked up) Papain: IPEYVDWRQKGAVTPVKNQGSCGSCWAFSAVVTIEGIIKIRTGNLNEYSEQELLDCDRRSYGCNGGYPWSALQLVAQYGIHYRNTYPYEGVQRYCRSREKGPYAAKTDGVRQVQPYNEGALLYSIANQPVSVVLEAAGKDFQLYRGGIFVGPCGNKVDHAVAAVGYGPNYILIKNSWGTGWGENGYIRIKRGTGNSYGVCGLYTSSFYPVKN",diffusion results by papain concentration,[1],optimal diffusion results
same,duration of effectiveness after mixture with water,[4],approximately twenty-four
"USP papain: papain of United States Pharmacopeia standard (protein, UniProt P00784 134-345, looked up, USP standard) Papain: IPEYVDWRQKGAVTPVKNQGSCGSCWAFSAVVTIEGIIKIRTGNLNEYSEQELLDCDRRSYGCNGGYPWSALQLVAQYGIHYRNTYPYEGVQRYCRSREKGPYAAKTDGVRQVQPYNEGALLYSIANQPVSVVLEAAGKDFQLYRGGIFVGPCGNKVDHAVAAVGYGPNYILIKNSWGTGWGENGYIRIKRGTGNSYGVCGLYTSSFYPVKN",papain activity,[5]; USP papain,"at least 6,000 USP units per mg"
"ICN papain 2× crystallized suspension: ICN Company papain, 2× crystallized suspension form (protein, UniProt P00784 134-345, looked up, crystallized suspension, ICN Company papain, 2× crystallized suspension form) Papain: IPEYVDWRQKGAVTPVKNQGSCGSCWAFSAVVTIEGIIKIRTGNLNEYSEQELLDCDRRSYGCNGGYPWSALQLVAQYGIHYRNTYPYEGVQRYCRSREKGPYAAKTDGVRQVQPYNEGALLYSIANQPVSVVLEAAGKDFQLYRGGIFVGPCGNKVDHAVAAVGYGPNYILIKNSWGTGWGENGYIRIKRGTGNSYGVCGLYTSSFYPVKN",papain activity,[6]; ICN papain forms,15-40 BAEE Units of activity
"Sigma papain: papain product of Sigma, approximately eighty percent protein (protein, UniProt P00784 134-345, looked up, commercial preparation, papain product of Sigma, approximately eighty percent protein) Papain: IPEYVDWRQKGAVTPVKNQGSCGSCWAFSAVVTIEGIIKIRTGNLNEYSEQELLDCDRRSYGCNGGYPWSALQLVAQYGIHYRNTYPYEGVQRYCRSREKGPYAAKTDGVRQVQPYNEGALLYSIANQPVSVVLEAAGKDFQLYRGGIFVGPCGNKVDHAVAAVGYGPNYILIKNSWGTGWGENGYIRIKRGTGNSYGVCGLYTSSFYPVKN",papain activity,"[6]; 25° C., pH 6.2, Sigma papain product",10-20 BAEE Units per milligram of enzyme-containing material
"Marcor papain: Marcor Company (Hackensack, N.J.) papain (protein, UniProt P00784 134-345, looked up, commercial Marcor preparation) Papain: IPEYVDWRQKGAVTPVKNQGSCGSCWAFSAVVTIEGIIKIRTGNLNEYSEQELLDCDRRSYGCNGGYPWSALQLVAQYGIHYRNTYPYEGVQRYCRSREKGPYAAKTDGVRQVQPYNEGALLYSIANQPVSVVLEAAGKDFQLYRGGIFVGPCGNKVDHAVAAVGYGPNYILIKNSWGTGWGENGYIRIKRGTGNSYGVCGLYTSSFYPVKN",papain activity,"[5]; Marcor papain, footnote of EXAMPLE I","30,000 USP Units/m activity"
same,papain activity,[5]; Marcor papain,"30,000 USP units/mg"
"Sigma papain, product no. P4762: Sigma Co., product no. P4762, 2× crystallized, lyophilized powder (protein, UniProt P00784 134-345, looked up, lyophilized powder, Sigma Co., product no; P4762, 2× crystallized, lyophilized powder) Papain: IPEYVDWRQKGAVTPVKNQGSCGSCWAFSAVVTIEGIIKIRTGNLNEYSEQELLDCDRRSYGCNGGYPWSALQLVAQYGIHYRNTYPYEGVQRYCRSREKGPYAAKTDGVRQVQPYNEGALLYSIANQPVSVVLEAAGKDFQLYRGGIFVGPCGNKVDHAVAAVGYGPNYILIKNSWGTGWGENGYIRIKRGTGNSYGVCGLYTSSFYPVKN",papain activity,"[6]; Sigma product no. P4762, 2× crystallized, lyophilized powder",16-20 BAEE units/mg
"ICN papain 2× crystallized powder: ICN Company papain, 2× crystallized powder (protein, UniProt P00784 134-345, looked up, crystallized powder, ICN Company papain, 2× crystallized powder) Papain: IPEYVDWRQKGAVTPVKNQGSCGSCWAFSAVVTIEGIIKIRTGNLNEYSEQELLDCDRRSYGCNGGYPWSALQLVAQYGIHYRNTYPYEGVQRYCRSREKGPYAAKTDGVRQVQPYNEGALLYSIANQPVSVVLEAAGKDFQLYRGGIFVGPCGNKVDHAVAAVGYGPNYILIKNSWGTGWGENGYIRIKRGTGNSYGVCGLYTSSFYPVKN",papain activity,[6]; ICN papain forms,10-20 BAEE Units of activity
